Measured values from the PETadex activity labels (doi:10.3389/fbioe.2022.865787).

B1: unnamed (protein)
chain: MLTHSISPEETDGGRRTPLSRMSRLAARVGVTLSLAAGLTAGVTAPAHASNPYERGPAPTESSVTAVRGYFDTDTDTVSSLVSGFGGGTIYYPTDTSEGTFGGVVIAPGYTASQSSMAWMGHRIASQGFVVFTIDTITRYDQPDSRGRQIEAALDYLVEDSDVADRVDGNRLAVMGHSMGGGGTLAAAENRPELRAAIPLTPWHLQKNWSDVEVPTMIIGAENDTVASVRTHSIPFYESLDEDLERAYLELDGASHFAPNISNTVIAKYSISWLKRFVDEDERYEQFLCPPPDTGLFSDFADYRDSCPHTT
B2: unnamed (protein)
chain: MLTHSISPEETDGGRRTPLSRMSRLAARVGVTLSLAAGLTAGVTAPAHASNPYERGPAPTESSVTAVRGYFDTDTDTVSSLVSGFGGGTIYYPTDTSEGTFGGVVIAPGYTASQSSMAWMGHRIASQGFVVFTIDTITRYDQPDSRGRQIEAALDYLVEDSDVADRVDGNRLAVMGHSMGGGGTLAAAENRPELRAAIPLTPWHLQKNWSDVEVPTMIIGAENDTVASVRTHSIPFYESLDEDLERAYLELAGASHFAPNISNTVIAKYSISWLKRFVDEDERYEQFLCPPPDTGLFSDFSDYRDSCPHTT

Substrate: pNPB
Assay: Proxy for plastic degradation [Absorbance @ 405nm]
Conditions: pH 8

Row | Protein | Proxy for plastic degradation (0 h) [%] | Proxy for plastic degradation (5 °C) [%] | Proxy for plastic degradation (10 °C) [%] | Proxy for plastic degradation (15 °C) [%] | Proxy for plastic degradation (20 °C) [%] | Proxy for plastic degradation (25 °C) [%] | Proxy for plastic degradation (30 °C) [%] | Proxy for plastic degradation (35 °C) [%] | Proxy for plastic degradation (40 °C) [%] | Proxy for plastic degradation (45 °C) [%] | Proxy for plastic degradation (50 °C) [%] | Proxy for plastic degradation (55 °C) [%] | Proxy for plastic degradation (60 °C) [%] | Proxy for plastic degradation (65 °C) [%] | Proxy for plastic degradation (70 °C) [%] | Proxy for plastic degradation (20 h) [%] | Proxy for plastic degradation (40 h) [%] | Proxy for plastic degradation (60 h) [%] | Proxy for plastic degradation (80 h) [%] | Proxy for plastic degradation (100 h) [%] | also measured
1 | B1 | 100 | 42.5 | 45 | 47.5 | 55 | 75 | 100 | 92.5 | 87.5 | 77.5 | 62.5 | 35 | 20 | 17.5 | 15 | 87.5 | 77.5 | 65 | 62.5 | 60 | Proxy for plastic degradation (120 h): 57.5%
2 | B2 | 100 | 15 | 17.5 | 20 | 32.5 | 50 | 90 | 100 | 80 | 70 | 37.5 | 25 | 15 | 12.5 | 10 | 75 | 70 | 55 | 40 | 35 | Proxy for plastic degradation (120 h): 25%
